This experiment addresses tralokinumab half molecule (human).

The results in this text go back to article PMC9007600.

B1: tralokinumab half molecule (antibody, V domains shown)
VH: QVQLVQSGAEVKKPGASVKVSCKASGYTFTNYGLSWVRQAPGQGLEWMGWISANNGDTNYGQEFQGRVTMTTDTSTSTAYMELRSLRSDDTAVYYCARDSSSSWARWFFDLWGRGTLVTVSS
VL: SYVLTQPPSVSVAPGKTARITCGGNIIGSKLVHWYQQKPGQAPVLVIYDDGDRPSGIPERFSGSNSGNTATLTISRVEAGDEADYYCQVWDTGSDPVVFGGGTKLTVL
B1: the dissociation half-life stood at 16.8 h.
